Results taken from the PETadex activity labels (doi:10.1016/j.bbrc.2024.150833).

Substrate: pNPB
Assay: Proxy for plastic degradation [Absorbance @ 405nm]

B1: unnamed (protein)
chain: MTDVEIALSTGRVKGTDLGDVVRYYGIPYAEDPVGDLRFAAPVRREPWPGVRDATRPAATAQRLRFDPDPAIPEPIVAGTDILHVDVWAPTEGAGHPVLVWIHGGGWESGSSHQPWFVGTAFARAGIVVVSVGYRLGVEGFTAFPDAPDNRGVRDWIMALEWVRDEIAAFGGDPGQVTVSGQSAGGGAVLCLLASPLAAGLFHRGIASSPAVLRSPAAQAPKGTTAAGLAAGGRGAVDEFHRRLRKDNPFLMPFRPTVGDDTVPVPPLEGIGSGPGLDLPLLIGSTATEFEGVVRALPGAALVPGAAMILRSQELPTTGLRALARQSAGKSLRRAVGAVVDAATIHSTVVRAAETRVAAGAPTWVYDFRWSEGRGAVHCADLPFFWSVPEAANVRAYLGADAPPGLVDAMHRSWVDFVRSGDPGSPPYAPPGRRVQVWDEPPAVVEDGLADVRAVWWPAGGS
Proxy for plastic degradation (pH 5): 10.3 U/mg | Proxy for plastic degradation (pH 5.5): 15.4 U/mg | Proxy for plastic degradation (pH 6): 41.1 U/mg | Proxy for plastic degradation (pH 6.5): 61.7 U/mg | Proxy for plastic degradation (pH 7): 72 U/mg | Proxy for plastic degradation (pH 7.5): 77.1 U/mg | Proxy for plastic degradation (pH 8, 10 °C): 36 U/mg | Proxy for plastic degradation (pH 8, 20 °C): 46.3 U/mg | Proxy for plastic degradation (pH 8, 25 °C): 77.1 U/mg | Proxy for plastic degradation (pH 8, 30 °C): 92.6 U/mg | Proxy for plastic degradation (pH 8, 37 °C): 103 U/mg | Proxy for plastic degradation (pH 8, 40 °C): 84.9 U/mg | Proxy for plastic degradation (pH 8, 50 °C): 59.7 U/mg | Proxy for plastic degradation (pH 8, 60 °C): 20.6 U/mg | Proxy for plastic degradation (pH 8, 70 °C): 10.3 U/mg | Proxy for plastic degradation (pH 8.5): 92.6 U/mg | Proxy for plastic degradation (pH 9): 87.4 U/mg
